# Publication PMC4703059
# B1: Engineered Lst4 (K. lactis) aa58-714 with a deletion of the intra-DENN loop (aa 388-534) (domain or fragment)
# chain: NDRLHNGGFRLIISQELGHVTSRNNYQVVLDHSSVNFHTGAHIPLNELKDYIFGSSIRTIDYSASSDKIKVVKSANIVLFTRIFYLNEKSTLRIAISCCVTDDVLPVLTECWPHISSFLDQCENTLLKYLAKNDTQFLPHDWKARNCIEVAAVLQTFQRKIIPLLSGYSDTPRLFLYPMDSIPYIKTWVKYVTNWIELKDGPRVRFLPILLAKLRYDFASLLKENSNTRIVILTGNMNVANRLIFILTAFLGPHFRGTLHKSINSQGCPSPAGRKMSNMSGASDFPFELKPSNSSITETNKGWEIPRIKRDPTFSVTSVSSDETGVQTFILNDAFADLVIDPPSYDTTVSNEKHGEIVEVNMASPRKQRNNQNQELLRRFTSYTPHYNQWFQLQACQITTESENKVIHSMKRDLTYADQDPCKKDKSTSTLLISLRSREIKQVTIVRDTNNRFIQRTKKILQNGKVGPVSRAMLSGIETTDQHLKKLMECNNDNEALVSLFNDIVTCAST
# Molecular target: Full-length wt Lst7 (K. lactis) with C-terminal Strep tag (Kluyveromyces lactis)
# Experiment: AUC + SEC-MALS; purified K. lactis Lst7/Lst4 complex; AUC sedimentation velocity with interference data at 0.15 mg/ml, SEDFIT; SEC-MALS of 50 µg in 50 µl on TSKgel SuperSW2000 in PBS, 0.35 ml/min
binder,measurement,value
B1,stoichiometry N,1
